One data set has as its target MBP-BmPSI (Bombyx mori, UniProt A8R081 1-703). The experiment in a line: ITC; 25 C; n = 1.02; RNA dissolved in protein purification buffer, 20 mM Tris, 20 mM NaCl (pH not given); ITC at 25 C; EMSA buffer not given. The settings on record: protein: recombinant; tags: N-terminal His6-MBP-TEV.
A further data set concerns the target SlPSI L127G (Spodoptera litura, UniProt A0A9J7DW37 1-732, L127G). In words: competition; unlabeled CE1 against biotin-CE1; RNA dissolved in protein purification buffer, 20 mM Tris, 20 mM NaCl (pH not given); ITC at 25 C; EMSA buffer not given. The following applies: protein: recombinant; tags: N-terminal His6-MBP-TEV.

Chain of MBP-BmPSI (A8R081 entry or part of it): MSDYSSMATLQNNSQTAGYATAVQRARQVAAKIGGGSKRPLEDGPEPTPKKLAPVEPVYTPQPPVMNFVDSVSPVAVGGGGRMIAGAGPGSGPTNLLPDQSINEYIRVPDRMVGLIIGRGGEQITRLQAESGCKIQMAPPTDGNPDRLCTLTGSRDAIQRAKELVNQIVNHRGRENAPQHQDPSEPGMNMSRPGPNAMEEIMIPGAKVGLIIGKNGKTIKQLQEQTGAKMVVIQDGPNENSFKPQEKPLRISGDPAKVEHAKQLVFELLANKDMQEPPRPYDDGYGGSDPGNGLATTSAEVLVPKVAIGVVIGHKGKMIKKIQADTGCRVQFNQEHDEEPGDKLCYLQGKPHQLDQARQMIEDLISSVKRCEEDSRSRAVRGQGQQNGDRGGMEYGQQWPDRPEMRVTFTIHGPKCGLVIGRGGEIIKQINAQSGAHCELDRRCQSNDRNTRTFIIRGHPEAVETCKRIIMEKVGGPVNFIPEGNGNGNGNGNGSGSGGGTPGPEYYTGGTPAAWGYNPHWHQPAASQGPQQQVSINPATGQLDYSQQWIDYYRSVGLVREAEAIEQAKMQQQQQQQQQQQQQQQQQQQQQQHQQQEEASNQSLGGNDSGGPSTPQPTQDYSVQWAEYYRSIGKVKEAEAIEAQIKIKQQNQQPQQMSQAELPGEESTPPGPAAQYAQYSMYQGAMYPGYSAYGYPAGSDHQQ
Chain of SlPSI L127G (A0A9J7DW37 entry or part of it L127G | L127G L127G): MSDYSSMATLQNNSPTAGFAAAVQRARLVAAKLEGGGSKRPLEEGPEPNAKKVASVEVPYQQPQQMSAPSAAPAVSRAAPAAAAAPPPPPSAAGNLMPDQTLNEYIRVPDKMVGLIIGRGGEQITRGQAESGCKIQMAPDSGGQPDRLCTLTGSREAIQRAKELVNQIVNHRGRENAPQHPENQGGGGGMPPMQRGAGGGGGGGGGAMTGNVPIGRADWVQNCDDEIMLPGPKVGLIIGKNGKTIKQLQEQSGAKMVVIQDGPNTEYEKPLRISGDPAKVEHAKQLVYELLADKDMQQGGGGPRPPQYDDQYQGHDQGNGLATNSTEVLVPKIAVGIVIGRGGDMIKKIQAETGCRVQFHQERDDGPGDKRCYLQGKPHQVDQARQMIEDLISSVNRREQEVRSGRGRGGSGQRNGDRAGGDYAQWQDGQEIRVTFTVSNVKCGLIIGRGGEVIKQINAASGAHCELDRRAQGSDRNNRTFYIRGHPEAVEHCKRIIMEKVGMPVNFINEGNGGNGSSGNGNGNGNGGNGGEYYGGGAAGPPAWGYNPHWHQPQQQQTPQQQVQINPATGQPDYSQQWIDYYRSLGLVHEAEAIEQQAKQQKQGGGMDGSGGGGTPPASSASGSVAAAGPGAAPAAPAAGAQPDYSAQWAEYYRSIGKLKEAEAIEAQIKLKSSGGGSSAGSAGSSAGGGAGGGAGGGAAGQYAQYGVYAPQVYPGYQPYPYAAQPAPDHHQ

For the molecule UUAAUAAUAUAAGUGGUGUA (ssRNA) [CE1 RNA, unlabeled], the Ka with MBP-BmPSI amounted to 1.74e+07 M⁻¹. The binding result with SlPSI L127G is listed as “binds”.

The values above are taken from PMC6539025, “P-element Somatic Inhibitor Protein Binding a Target Sequence in dsx Pre-mRNA Conserved in Bombyx mori and Spodoptera litura”.
